Positions count from the first letter of the chain named. Names and notes keep the numbering of the source.
B1: IL6R-BP180/IL6R-L (antibody, human IgG1, name in EU numbering)
heavy: QVQLQESGPGLVKPSETLSLTCAVSGHSISHDHAWSWVRQPPGEGLEWIGFISYSGITNYNPSLQGRVTISRDNSKNTLYLQMNSLRAEDTAVYYCARSLARTTAMDYWGEGTLVTVSSASTKGPSVFPLAPSSKSTSGGTAALGCLVKDYFPEPVTVSWNSGALTSGVHTFPAVLQSSGLYSLSSVVTVPSSSLGTQTYICNVNHKPSNTKVDKKVEPKSCDKTHTCPPCPAPELLGDDSVFLFPPKPKDTLMISRTPEVTCVVVDVSHEDGEVKFNWYVDGVEVHNAKTKPREEQYNSTYRVVSVLTVLHQDWLNGKEYKCKVSNKALPKPIEKTISKAKGQPREPQVYTLPPSRDELTKNQVSLTCLVKGFYPSDIAVEWESNGQPENNYKTTPPVLDSDGSFFLYSKLTVDKSRWQQGNVFSCSVMHEALHNHYTQESLSLSP
light: DIQMTQSPSSLSASVGDRVTITCRASQDISSYLNWYQQKPGKAPKLLIYYTSRLHSGVPSRFSGSGSGTDFTFTISSLQPEDIATYYCQQGNTLPYTFGQGTKVEIK
notes: Alterations introduced into IL6R-B3 (EU numbering)
B2: IL6R-BP151/IL6R-L (antibody, human IgG1, name in EU numbering)
heavy: B1 heavy with E235D, L236Y, G273P, K328A, K332R
light: B1 light
notes: as for B1
B3: IL6R-BP179/IL6R-L (antibody, human IgG1, name in EU numbering)
heavy: B1 heavy with K328A
light: B1 light
notes: as for B1
B4: IL6R-BP089/IL6R-L (antibody, human IgG1, name in EU numbering)
heavy: B1 heavy with L236Y, D239G, G273P, K328A
light: B1 light
notes: as for B1
B5: IL6R-BP087/IL6R-L (antibody, human IgG1, name in EU numbering)
heavy: B1 heavy with L236Y, D239G, G273P
light: B1 light
notes: as for B1
B6: GpH7-B3 N325F/GpL16-k0 (antibody, human IgG1)
heavy: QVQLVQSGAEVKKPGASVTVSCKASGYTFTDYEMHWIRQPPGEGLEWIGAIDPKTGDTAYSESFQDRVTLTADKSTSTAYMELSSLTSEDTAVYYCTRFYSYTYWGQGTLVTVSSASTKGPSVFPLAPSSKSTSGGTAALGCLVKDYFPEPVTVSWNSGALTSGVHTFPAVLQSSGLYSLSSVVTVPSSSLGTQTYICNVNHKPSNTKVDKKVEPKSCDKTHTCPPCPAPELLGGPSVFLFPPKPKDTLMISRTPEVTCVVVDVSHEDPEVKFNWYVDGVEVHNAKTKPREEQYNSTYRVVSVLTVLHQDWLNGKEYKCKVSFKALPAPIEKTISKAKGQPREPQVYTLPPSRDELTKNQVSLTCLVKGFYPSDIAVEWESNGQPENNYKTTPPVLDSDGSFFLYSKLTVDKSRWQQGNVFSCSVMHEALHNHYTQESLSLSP
light: DIVMTQSPLSLPVTPGEPASISCQASESLVHSNRNTYLHWYLQKPGQSPQLLIYKVSNRFSGVPDRFSGSGSGTDFTLKISRVEAEDVGVYYCSQNTHVPPTFGQGTKVEIE
notes: Anti-glypican-3 human IgG1 with B3 constant region (G1d with K439E); also called B3 variant; copies: 2 + 2
B7: GpH7-B3 Y300R/GpL16-k0 (antibody, human IgG1)
heavy: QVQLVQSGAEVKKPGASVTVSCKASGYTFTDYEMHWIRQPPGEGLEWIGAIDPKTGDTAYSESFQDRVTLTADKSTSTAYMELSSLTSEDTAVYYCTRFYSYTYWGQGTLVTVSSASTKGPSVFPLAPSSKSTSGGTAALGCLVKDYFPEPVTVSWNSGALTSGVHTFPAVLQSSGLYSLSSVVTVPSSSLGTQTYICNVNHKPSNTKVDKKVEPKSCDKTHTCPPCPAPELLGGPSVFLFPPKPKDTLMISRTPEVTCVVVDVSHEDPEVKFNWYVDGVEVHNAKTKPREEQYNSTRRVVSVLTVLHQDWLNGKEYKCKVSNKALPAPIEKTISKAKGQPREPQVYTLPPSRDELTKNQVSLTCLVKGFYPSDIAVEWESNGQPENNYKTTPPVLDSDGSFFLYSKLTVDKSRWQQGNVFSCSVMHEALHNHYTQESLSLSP
light: B6 light
notes: as for B6
B8: antibody containing VH3-IgG4-F890 for the heavy chain and L(WT)-CK for the light chain (antibody)
heavy: QVQLQESGPGLVKPSETLSLTCAVSGHSISHDHAWSWVRQPPGEGLEWIGFISYSGITNYNPSLQGRVTISRDNSKNTLYLQMNSLRAEDTAVYYCARSLARTTAMDYWGEGTLVTVSSASTKGPSVFPLAPCSRSTSESTAALGCLVKDYFPEPVTVSWNSGALTSGVHTFPAVLQSSGLYSLSSVVTVPSSSLGTKTYTCNVDHKPSNTKVDKRVESKYGPPCPPCPAPEFLGGPSVFLFPPKPKDTLYISRTPEVTCVVVDVSQEDPEVQFNWYVDGVEVHNAKTKPREEQFNSTYRVVSVLTVLHQDWLNGKEYKCKVSNKGLPSSIEKTISKAKGQPREPQVYTLPPSQEEMTKNQVSLTCLVKGFYPSDIAVEWESNGQPENNYKTTPPVLDSDGSFFLYSRLTVDKSRWQEGNVFSCSVMHEALHYHVTQKSLSLSL
light: not shown
notes: VH3-IgG4 with M252Y/N434Y/Y436V (EU numbering)
B9: antibody containing VH3-IgG4-F939 for the heavy chain and L(WT)-CK for the light chain (antibody)
heavy: B8 heavy with L234R, S238K
light: not shown
notes: VH3-IgG4 with L235R/S239K/M252Y/N434Y/Y436V (EU numbering)
B10: antibody containing VH3-IgG2-F890 for the heavy chain and L(WT)-CK for the light chain (antibody)
heavy: QVQLQESGPGLVKPSETLSLTCAVSGHSISHDHAWSWVRQPPGEGLEWIGFISYSGITNYNPSLQGRVTISRDNSKNTLYLQMNSLRAEDTAVYYCARSLARTTAMDYWGEGTLVTVSSASTKGPSVFPLAPCSRSTSESTAALGCLVKDYFPEPVTVSWNSGALTSGVHTFPAVLQSSGLYSLSSVVTVPSSNFGTQTYTCNVDHKPSNTKVDKTVERKCCVECPPCPAPPVAGPSVFLFPPKPKDTLYISRTPEVTCVVVDVSHEDPEVQFNWYVDGVEVHNAKTKPREEQFNSTFRVVSVLTVVHQDWLNGKEYKCKVSNKGLPAPIEKTISKTKGQPREPQVYTLPPSREEMTKNQVSLTCLVKGFYPSDIAVEWESNGQPENNYKTTPPMLDSDGSFFLYSKLTVDKSRWQQGNVFSCSVMHEALHYHVTQKSLSLSP
light: not shown
notes: VH3-IgG2 with M252Y/N434Y/Y436V (EU numbering)
B11: antibody containing VH3-IgG2-F939 for the heavy chain and L(WT)-CK for the light chain (antibody)
heavy: B10 heavy with A234R, S237K
light: not shown
notes: VH3-IgG2 with A235R/S239K/M252Y/N434Y/Y436V (EU numbering)
B12: antibody containing VH3-IgG2 for the heavy chain and L(WT)-CK for the light chain (antibody)
heavy: B10 heavy with Y250M, Y432N, V434Y
light: not shown
B13: IL6R-PD081/IL6R-L (antibody, human IgG1)
heavy: B1 heavy with D239E, M254Y, G273P, K332A, N436Y, E441K
light: B1 light
notes: Alterations introduced into IL6R-F11; also called P238D/G237E
B14: IL6R-PD095/IL6R-L (antibody, human IgG1)
heavy: B1 heavy with D239Y, M254Y, G273P, K332A, N436Y, E441K
light: B1 light
notes: Alterations introduced into IL6R-F11; also called P238D/G237Y
B15: IL6R-PD082/IL6R-L (antibody, human IgG1)
heavy: B1 heavy with D239F, M254Y, G273P, K332A, N436Y, E441K
light: B1 light
notes: Alterations introduced into IL6R-F11; also called P238D/G237F
B16: IL6R-PD087/IL6R-L (antibody, human IgG1)
heavy: B1 heavy with D239M, M254Y, G273P, K332A, N436Y, E441K
light: B1 light
notes: Alterations introduced into IL6R-F11; also called P238D/G237M

Each binder was assayed against T1, human FcγRIIb (human, UniProt P31994 43-217, limits assumed) (assay: ratio of SPR KD values: KD for FcγRIIaR divided by KD for FcγRIIb).
T1 construct: Whole entry (AAI46679.1); also called FcγIIB; FcgRIIb
T1 sequence: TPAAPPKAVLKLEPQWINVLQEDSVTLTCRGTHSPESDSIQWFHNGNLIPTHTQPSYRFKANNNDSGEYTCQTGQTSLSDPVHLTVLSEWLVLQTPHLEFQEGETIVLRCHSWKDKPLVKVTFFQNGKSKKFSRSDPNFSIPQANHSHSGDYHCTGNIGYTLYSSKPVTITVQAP
Description: Next, interaction between these antibodies and FcγR was analyzed kinetically using the BIACORE™ T100 (GE Healthcare). The interaction was measured at a temperature of 25° C. using HBS-EP+ (GE Healthcare) for the running buffer. The Series S Sensor Chip CM5 (GE Healthcare) was used after immobilizing Protein A by amine coupling. […] Antibody captured on the chip was washed by allowing 10 mM glycine-HCl (pH 1.5) to react following measurement. The chip regenerated in this manner was used repeatedly. The dissociation constant KD (mol/L) was calculated from the association rate constant ka (L/mol/s) and dissociation rate constant kd (1/s) as calculated by global-fitting the measurement results with a 1:1 Langmuir binding model using the BIACORE™ Evaluation Software.
Furthermore, KD(IIaR)/KD(IIb) and KD(IIaH)/KD(IIb) in the table respectively represent the value obtained by dividing the KD value of each variant for FcγRIIaR by the KD value of each variant for FcγRIIb, and the value obtained by dividing the KD value of each variant for FcγRIIaH by the KD value of each variant for FcγRIIb.

Row | Binder | KD(IIaR)/KD(IIb)
1 | B1 | 18.5
2 | B2 | 15.9
3 | B3 | 15.7
4 | B4 | 15.5
5 | B5 | 15

The binders below were run against T2, human FcγRIIIa(F) (human, UniProt P08637 17-208, limits assumed) (assay: SPR, antibody captured, FcγR as analyte, capture-corrected binding amount).
T2 construct: the assay used allotype F; also called FcgRIIIaF; FcγRIIIa allotype F158
T2 sequence (P08637 other isoform, or with tags, fused parts or gaps limits assumed): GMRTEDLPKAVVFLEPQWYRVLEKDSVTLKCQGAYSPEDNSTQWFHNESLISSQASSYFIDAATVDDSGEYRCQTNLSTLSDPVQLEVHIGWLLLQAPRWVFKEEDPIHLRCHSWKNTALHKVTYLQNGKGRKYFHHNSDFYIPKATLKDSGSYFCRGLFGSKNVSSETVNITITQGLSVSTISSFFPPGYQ
Description: Interaction between each modified antibody and Fcγ receptor prepared in the manner described above was analyzed using the BIACORE™ T100 surface plasmon resonance system (GE Healthcare), BIACORE™ T200 surface plasmon resonance system (GE Healthcare), BIACORE™ A100 surface plasmon resonance system or BIACORE™ 4000 surface plasmon resonance system. HBS-EP+(GE Healthcare) was used for the running buffer, and measurements were carried out at 25° C. The chips used were chips in which antigen peptides, Protein A (Thermo Scientific), Protein A/G (Thermo Scientific) or Protein L (ACTIGEN® protein (Alltech or BioVision) were immobilized on the Series S Sensor Chip CM5 (GE Healthcare) or Series S Sensor Chip CM4 (GE Healthcare) by amine coupling, or chips in which preliminarily biotinylated antigen peptides were allowed to interact and then immobilized on the Series S Sensor Chip SA (certified) (GE Healthcare). The target antibodies were captured on these sensor chips, Fcγ receptor diluted with the running buffer was allowed to interact, followed by measurement of the amount of bound antibody. The amounts bound were compared between antibodies. However, since the amount of Fcγ receptor bound depends on the amount of captured antibody, the values used for comparison were first corrected by dividing the amount of Fcγ receptor bound by the captured amount of each antibody. Through reaction with 10 mM glycine-HCl at pH 1.5, the sensor chips were regenerated by washing off antibody captured on the sensor chips and used repeatedly.
Binding strength was evaluated according to the following method based on the results of analyzing the interaction with each FcγR. […] That value was then further multiplied by 100, and the resulting value was used as an indicator of relative binding activity to each FcγR.

Row | Binder | relative binding activity
6 | B6 | 1 % of GpH7-B3/GpL16-k0
7 | B7 | 12 % of GpH7-B3/GpL16-k0

What follows are binders tested against T3, human FcγRIa (human, UniProt P12314 16-292, limits assumed) (assay: SPR (Biacore), antibody captured by Protein L, FcγR as analyte, pH 7.4, 25 C;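 note: Buffer-blank-subtracted FcγR response, normalized to the captured antibody level and scaled to 1500 RU of captured antibody, CM4 chip, ACES-NaCl running buffer with polysorbate 20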).
T3 construct: Soluble analyte in SPR; also called hFcgRIa; FcgRIa
T3 sequence (P12314 16-292 limits assumed): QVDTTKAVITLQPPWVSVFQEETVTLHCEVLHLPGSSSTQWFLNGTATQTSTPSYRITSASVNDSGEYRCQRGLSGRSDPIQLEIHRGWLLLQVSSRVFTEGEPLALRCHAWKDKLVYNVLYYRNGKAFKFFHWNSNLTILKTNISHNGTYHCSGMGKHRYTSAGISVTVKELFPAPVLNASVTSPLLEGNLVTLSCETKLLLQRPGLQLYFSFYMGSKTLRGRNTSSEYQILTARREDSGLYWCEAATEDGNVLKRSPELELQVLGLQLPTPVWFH
Description: (§1) Binding activity between the antibodies and human FcγRIa, FcγRIIa(H), FcγRIIa(R), FcγRIIb and FcγRIIIa(F) (hereinafter referred to as human FcγRs) was evaluated using the BIACORE™ T100 or T200 surface plasmon resonance system (GE Healthcare). The antibodies being tested were captured by Protein L (ACTIGEN® protein (Alltech)) that was immobilized in suitable amounts on the CM4 Sensor Chip (GE Healthcare) by amine coupling. Next, the diluted human FcγRs and a running buffer used as a blank were injected to allow interaction with the antibodies captured on the sensor chip. A buffer consisting of 20 mmol/L N-(2-acetamido)-2-aminoethanesulfonic acid (ACES), 150 mmol/L NaCl and 0.05% (w/v) polysorbate 20 (Tween 20®) (pH 7.4) was used for the running buffer, and this buffer was also used to dilute the human FcγRs. 10 mmol/L glycine-HCl (pH 1.5) was used to regenerate the sensor chip. All measurements were carried out at 25° C.
(§2) Binding activity to human FcγRs can be represented by the relative binding activity to human FcγRs. Antibody was captured by Protein L, and the amount of change in a sensorgram before and after the antibody was captured was defined as X1. Next, human FcγRs were allowed to interact with the antibody, and the value obtained by subtracting binding activity of human FcγRs represented as the amount of change in a sensorgram before and after allowing the running buffer to interact with antibody captured by Protein L (ΔA2) from the value obtained by multiplying by 1500 the value obtained by dividing the binding activity of human FcγRs represented as the amount of change in a sensorgram before and after that interaction (ΔA1) by the captured amount (X) of each antibody, was divided by the captured amount of each antibody (X) followed by multiplying by 1500 to obtain the binding activity of the human FcγRs (Y) (Equation 2).

Row | Binder | BINDING AMOUNT (RU)
8 | B8 | 367 RU
9 | B9 | 1.2 RU
10 | B10 | 19.7 RU
11 | B11 | 1.3 RU
12 | B12 | 38.6 RU

Molecular target: T4, human FcγRIIa(R) (allotype R131) (human, UniProt P12318 36-217)
T4 construct: Soluble analyte in SPR; also called hFcgRIIa(R); FcgRIIaR
T4 chain: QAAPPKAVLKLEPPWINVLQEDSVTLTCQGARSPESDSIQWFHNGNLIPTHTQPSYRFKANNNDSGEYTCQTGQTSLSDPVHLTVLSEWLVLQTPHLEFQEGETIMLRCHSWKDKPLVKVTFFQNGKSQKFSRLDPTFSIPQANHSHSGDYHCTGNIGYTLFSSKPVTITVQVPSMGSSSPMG
Experiment: as above
Description: as §1, §2

Row | Binder | BINDING AMOUNT (RU)
13 | B8 | 92.8 RU
14 | B9 | -0.2 RU
15 | B10 | 120 RU
16 | B11 | 1 RU
17 | B12 | 188 RU

What follows are binders tested against T5, human FcγRIIa(H) (allotype H131) (human, UniProt P12318 36-217) in the same assay as above.
T5 construct: Soluble analyte in SPR; also called hFcgRIIa(H); FcgRIIaH
T5 sequence: T4 chain with R133H
Description: as §1, §2

Row | Binder | BINDING AMOUNT (RU)
18 | B8 | 37.5 RU
19 | B9 | -0.7 RU
20 | B10 | 204 RU
21 | B11 | 1 RU
22 | B12 | 266 RU

These binders were tested against T6, human FcγRIIb (human, UniProt P31994 43-217, limits assumed) in the same assay as above.
T6 construct: Soluble analyte in SPR; also called hFcgRIIb; FcgRIIb
T6 sequence: T1 sequence
Description: as §1, §2

Row | Binder | BINDING AMOUNT (RU)
23 | B8 | 71.8 RU
24 | B9 | 0.4 RU
25 | B10 | 31.9 RU
26 | B11 | 0.4 RU
27 | B12 | 55.5 RU

Each binder was assayed against T7, human FcγRIIIa(F) (allotype F158) (human, UniProt P08637 17-208, limits assumed) in the same assay as above.
T7 construct: also called hFcgRIIIa(F); FcgRIIIaF
Description: as §1, §2

Row | Binder | BINDING AMOUNT (RU)
28 | B8 | 3.4 RU
29 | B9 | -1.7 RU
30 | B10 | 9.3 RU
31 | B11 | 0.6 RU
32 | B12 | 16.3 RU

These binders were tested against T8, human FcγRIIIa(V) (allotype V158) (human, UniProt P08637 17-208, limits assumed) in the same assay as above.
T8 construct: also called hFcgRIIIa(V)
T8 sequence (P08637 other isoform, or with tags, fused parts or gaps limits assumed): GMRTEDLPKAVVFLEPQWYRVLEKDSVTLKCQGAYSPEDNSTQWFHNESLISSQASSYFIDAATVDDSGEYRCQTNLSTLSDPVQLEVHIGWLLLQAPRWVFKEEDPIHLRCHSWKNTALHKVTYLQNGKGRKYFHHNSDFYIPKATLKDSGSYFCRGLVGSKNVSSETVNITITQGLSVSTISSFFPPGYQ
Description: as §1, §2

Row | Binder | BINDING AMOUNT (RU)
33 | B8 | 15.5 RU
34 | B9 | -0.5 RU
35 | B10 | 28.1 RU
36 | B11 | 1.1 RU
37 | B12 | 50.1 RU

These binders were tested against T9, human FcγRIIb (human, UniProt P31994 43-217) (assay: SPR (Biacore), captured antibody, FcγR as analyte; binding amount divided by that of IL6R-F652/IL6R-L, times 100).
T9 construct: also called FcγIIB
T9 sequence: T1 sequence

Row | Binder | RELATIVE BINDING ACTIVITY FOR FcγRIIb
38 | B13 | 101 relative (IL6R-F652/IL6R-L = 100)
39 | B14 | 124 relative (IL6R-F652/IL6R-L = 100)
40 | B15 | 108 relative (IL6R-F652/IL6R-L = 100)
41 | B16 | 109 relative (IL6R-F652/IL6R-L = 100)

Molecular target: T10, human FcγRIIa type R (human, UniProt P12318 36-217)
T10 construct: also called FcγRIIaR; Fc γ RIIaR
T10 chain: T4 chain
Experiment: as above

Row | Binder | RELATIVE BINDING ACTIVITY FOR FcγRIIaR
42 | B13 | 117 relative (IL6R-F652/IL6R-L = 100)
43 | B14 | 543 relative (IL6R-F652/IL6R-L = 100)
44 | B15 | 380 relative (IL6R-F652/IL6R-L = 100)
45 | B16 | 196 relative (IL6R-F652/IL6R-L = 100)

Reference: patent publication US20230257470A1 (published 2023)
